# Experimental data taken from patent US6509447B1, “G protein chimeras and methods of screening compounds” (Glaxo Welcome Inc., priority 1997, dated 2003).
# Tests used:
# serotonin 5HT1D receptor = biological target: T1, serotonin 5HT1D receptor (Homo sapiens, UniProt P28221); test: CPRG assay, MMY11 cells expressing 5-HT1D receptor plus Gα subunit; assay type: cell-based; set-up: key: weak activation insufficient to carry out curve-fitting was detected; NC: no coupling was detected
# T1 construct: expressed in transfected cells; host or cells: Saccharomyces cerevisiae strain MMY11, plasmid pDT-PGK-5-HT1D
# T1 sequence (P28221 whole entry): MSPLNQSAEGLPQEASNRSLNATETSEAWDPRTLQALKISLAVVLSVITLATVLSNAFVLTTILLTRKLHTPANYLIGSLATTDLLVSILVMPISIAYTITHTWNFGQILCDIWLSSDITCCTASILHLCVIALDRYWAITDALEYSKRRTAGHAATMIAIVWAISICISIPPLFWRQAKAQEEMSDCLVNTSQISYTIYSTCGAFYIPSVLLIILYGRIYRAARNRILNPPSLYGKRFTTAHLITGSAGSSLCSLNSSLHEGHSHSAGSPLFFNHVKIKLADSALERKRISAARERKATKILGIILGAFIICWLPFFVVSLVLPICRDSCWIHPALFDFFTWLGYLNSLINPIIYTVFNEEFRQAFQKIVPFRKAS
# Procedure: Assay for combined FUS1-lacZ and FUS1-HIS3 Expression. In vivo assays of reporter gene induction (CPRG assays) were carried out by suspending cells to 0.02 OD600 in 200 μl SC-glucose (2%) lacking tryptophan, uracil and histidine. This medium was supplemented with agonists, and additionally 10 mM 3-aminotriazole and the β-galactosidase (lacZ) substrate chlorophenolred-β-D-galactopyranoside (CPRG; Boehringer) to a concentration of 0.1 mg/ml. To visualise the colour change reaction, the medium was buffered to pH 7 with 0.1 M sodium phosphate. The assay was conducted in a 96-well microtitre plate format. Plates were incubated for 24 hours without agitation, and absorbance at 570 nm was determined using a Victor microtitre plate reader (Wallac). EC50 values (+/−standard error) were estimated by curve-fitting, using the Robosage software package.
# MMY11 was used in an experiment in which cells were transformed with pairs of plasmids as before, one to express a Gα subunit and the other a receptor expression construct. […] Where pheromone response pathway activation was detected, the agonist concentration required to yield a half-maximal response (EC50+/−standard error; all values in nM except where otherwise indicated) was determined by curve-fitting, and is shown in Table 4A. Where no coupling was detected, this is also indicated (NC).
# [1] = biological target: T2, purinergic nucleotide receptor, P2Y2 (Homo sapiens, UniProt P41231); test: Reverse halo assay for FUS1-HIS3 expression, MMY9 cells, P2Y2; assay type: cell-based; settings: MMY9 cells with pRS314-GPA1 and P2Y2 receptor, 100 nmol UTP
# T2 construct: expressed in transfected cells; host or cells: Saccharomyces cerevisiae strains MMY9 and MMY11, plasmid pDT-PGK-P2Y2
# T2 sequence (P41231 whole entry): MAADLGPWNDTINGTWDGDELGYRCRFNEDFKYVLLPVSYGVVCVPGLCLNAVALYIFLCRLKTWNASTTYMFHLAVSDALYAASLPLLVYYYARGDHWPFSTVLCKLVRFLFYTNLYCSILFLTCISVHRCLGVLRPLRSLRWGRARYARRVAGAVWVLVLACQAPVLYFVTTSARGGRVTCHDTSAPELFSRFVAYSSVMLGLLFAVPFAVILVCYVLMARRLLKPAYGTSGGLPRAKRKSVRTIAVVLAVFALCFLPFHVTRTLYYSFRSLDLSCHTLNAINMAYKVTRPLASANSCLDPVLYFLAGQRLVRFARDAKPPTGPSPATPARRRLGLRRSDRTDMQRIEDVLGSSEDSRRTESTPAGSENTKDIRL
# Procedure: Assay for FUS1-HIS3 Expression. Reverse halo assays were carried out by growing MMY9 cells to early stationary phase (OD600≈4) in liquid SC-glucose (2%) medium lacking tryptophan and uracil. A uniform layer of cells (5×10^7) was plated to 22.5 cm by 22.5 cm bioassay dishes (Nunc) in 100 ml SC-glucose agar (1%) equilibrated to 50° C. This medium lacked tryptophan, uracil and histidine, and was supplemented with 10 mM 3-aminotriazole, and buffered to pH 7.0 with 0.1M sodium phosphate. Antibiotic discs were placed on the solidified agar, and a volume of agonist solution (1-5 μl) was applied to each disc. Plates were incubated at 30° C. for 3 days.
# The four receptors were: the melatonin ML1B receptor, the serotonin 5HT1A receptor, the somatostatin SST2 receptor and the purinergic nucleotide receptor, P2Y2. […] Activation of the pheromone response pathway was monitored with two integrated reporter genes: […] allowing a growth readout in medium lacking histidine, and FUS1-lacZ allowing a β-galactosidase readout. […] Agonist-dependent activation of FUS1-HIS3 was determined by reverse halo assay in which agonists were applied to the filter discs in the arrangement shown in panel A, in quantities as follows: 3 nmol of somatostatin-14 (S-14); 40 nmol of melatonin (Mel); 3 nmol of α-factor; 100 nmol of UTP; 40 nmol of serotonin (5-HT). […]
molecule,measurement,setting,value
"Gpa1p: endogenous yeast Gα subunit, product of the GPA1 gene (protein, UniProt P08539 2-472, looked up) Guanine nucleotide-binding …: GCTVSTQTIGDESDPFLQNKRANDVIEQSLQLEKQRDKNEIKLLLLGAGESGKSTVLKQLKLLHQGGFSHQERLQYAQVIWADAIQSMKILIIQARKLGIQLDCDDPINNKDLFACKRILLKAKALDYINASVAGGSDFLNDYVLKYSERYETRRRVQSTGRAKAAFDEDGNISNVKSDTDRDAETVTQNEDADRNNSSRINLQDICKDLNQEGDDQMFVRKTSREIQGQNRRNLIHEDIAKAIKQLWNNDKGIKQCFARSNEFQLEGSAAYYFDNIEKFASPNYVCTDEDILKGRIKTTGITETEFNIGSSKFKVLDAGGQRSERKKWIHCFEGITAVLFVLAMSEYDQMLFEDERVNRMHESIMLFDTLLNSKWFKDTPFILFLNKIDLFEEKVKSMPIRKYFPDYQGRVGDAEAGLKYFEKIFLSLNKTNKPIYVKRTCATDTQTMKFVLSAVTDLIIQQNLKKIGII",coupling class where no EC50 could be fitted,serotonin 5HT1D receptor,NC
same,agonist-dependent activation of FUS1-HIS3 (halo of cell growth),[1],responded to the agonist UTP
